Consider 6 molecules from paper PMC6128619, “Allosteric Activation Shifts the Rate-Limiting Step in a Short-Form ATP Phosphoribosyltransferase” (Biochemistry, 2018).

Series [1] deals with T1, PaHisGS (short-form ATP phosphoribosyltransferase catalytic subunit) (Psychrobacter arcticus, UniProt Q4FQF7).
T1 construct: gene hisG
T1 sequence (Q4FQF7 1-231): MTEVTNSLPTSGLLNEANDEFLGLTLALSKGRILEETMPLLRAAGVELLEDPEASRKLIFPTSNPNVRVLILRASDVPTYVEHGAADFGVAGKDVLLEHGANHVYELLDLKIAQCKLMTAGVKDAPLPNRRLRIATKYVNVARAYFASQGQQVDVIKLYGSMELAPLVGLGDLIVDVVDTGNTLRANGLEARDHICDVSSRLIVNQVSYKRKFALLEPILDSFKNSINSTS
As to the kind of experiment: steady-state kinetics, initial velocity patterns, […] NMR of turnover (no ITC or DSF signal without PRPP). The class given is biochemical.

The target in series [2] is T1, PaHisGS (short-form ATP phosphoribosyltransferase catalytic subunit). In words: ITC (single-site model, […]); DSF Tm shift +[…] °C. The class given is binding.
For series [3] the target is unchanged. In words: steady-state inhibition kinetics, absorbance at […] nm (IC50 […]; Ki […] vs PRPP, […] vs ATP). The class given is biochemical.
Series [4] has the same target. As to the kind of experiment: […] NMR of product formation and steady-state kinetics (alternative substrate, with PRPP). It is filed as biochemical.
Substrate in series [5]: Nc1ncnc2c1ncn2[C@@H]1O[C@H](COP(=O)(O)OP(=O)(O)OP(=O)(O)O)[C@@H](O)[C@H]1O
In words: purified protein, by the assay type. On the set-up: steady-state kinetics, spectrophotometric PRATP formation, substrate saturation fitted for KM. The procedure: (§1) For a quantitative comparison of the reactions with ATP and ADP, steady-state kinetic analysis of the reaction with either substrate was carried out (Figure 4) and kinetic parameters are summarized in Table S3. […] Replacement of Mg^2+ by Mn^2+ is a common strategy in enzymology,[36] having been employed to uncover rate-limiting steps in reactions involving stabilization of phosphate groups.[37] HisGL ATPPRTs have been reported to have their activities either unaltered or decreased by changing the divalent metal in the reaction from the physiological Mg^2+ to Mn^2+, but no mechanistic inference has been drawn.[17],[38] […] Mn^2+ led to 2.6- and 11-fold increases in PaHisGSkcat and kcat/KM^ATP, respectively, as compared with Mg^2+. The change in kcat/KM^ATP was driven in large part by a reduction in KM^ATP. LC-MS analysis of the PaHisGS reaction with Mn^2+ confirmed the same product, PRATP, was being formed (Figure S5). Kinetic and DSF data were analyzed by the nonlinear regression function of SigmaPlot 13 (SPSS Inc.). Data points and error bars in graphs are represented as mean ± standard error, and kinetic and equilibrium constants are presented as mean ± fitting error. Initial rate data with varying concentrations of PaHisZ were fitted to eq 1. The concentration of PaATPPRT at any concentration of PaHisGS and PaHisZ was calculated according to eq 2. Substrate saturation data were fitted to eq 3. Inhibition data at fixed substrate concentrations were fitted to eq 4, and competitive inhibition data were fitted to eq 5. Initial velocity patterns were fitted to eq 6, and pre-steady-state kinetics under multiple-turnover conditions was fitted to eq 7. In eqs 1–7, v is the initial rate, Vmax is the maximal velocity, G is the concentration of PaHisGS, Z is the concentration of PaHisZ, KD is the equilibrium dissociation constant, PaATPPRT is the concentration of PaHisGS-PaHisZ complex, S is the concentration of the varying substrate, kcat is the steady-state turnover number, KM is the apparent Michaelis constant, ET is total enzyme concentration, vi is the initial rate in the presence of inhibitor, IC50 is the half-maximal inhibitory concentration, Ki is the inhibitor dissociation constant, A and B are the first and second substrates to bind to the enzyme, respectively, Ka and Kb are their respective Michaelis constants, Kia is the apparent dissociation constant for the complex between enzyme and substrate A when the concentration of B approaches zero, t is time, P(t) is product concentration at time t, A0 is the amplitude of the burst phase, and kburst is the first-order rate constant of product formation in the burst phase. DSF thermal denaturation data were fitted to eq 8,[32] where FU is fraction unfolded, T is the temperature in °C, Tm is the melting temperature, c is the slope of the transition region, and LL and UL are folded and unfolded baselines, respectively. [drawing 1] 1 [drawing 2] 2 [drawing 3] 3 [drawing 4] 4 [drawing 5] 5 [drawing 6] 6 [drawing 7] 7 [drawing 8] 8

Substrate in series [6]: O=P(O)(O)OC[C@H]1O[C@H](OP(=O)(O)OP(=O)(O)O)[C@H](O)[C@@H]1O
In words: purified protein, by the assay type. On the set-up: steady-state kinetics, spectrophotometric PRATP formation, substrate saturation fitted for KM. The procedure:
as §1

Substrate in series [7]: Nc1ncnc2c1ncn2[C@@H]1O[C@H](COP(=O)(O)OP(=O)(O)OP(=O)(O)O)[C@@H](O)[C@H]1O
As to the kind of experiment: purified protein, by the assay type. On the set-up: steady-state substrate saturation kinetics with Mg2+, Michaelis-Menten fit. The source says:
(§2) Replacement of Mg^2+ by Mn^2+ is a common strategy in enzymology,[36] having been employed to uncover rate-limiting steps in reactions involving stabilization of phosphate groups.[37] HisGL ATPPRTs have been reported to have their activities either unaltered or decreased by changing the divalent metal in the reaction from the physiological Mg^2+ to Mn^2+, but no mechanistic inference has been drawn.[17],[38] […] Mn^2+ led to 2.6- and 11-fold increases in PaHisGSkcat and kcat/KM^ATP, respectively, as compared with Mg^2+. The change in kcat/KM^ATP was driven in large part by a reduction in KM^ATP. LC-MS analysis of the PaHisGS reaction with Mn^2+ confirmed the same product, PRATP, was being formed (Figure S5).  Figure 5 Steady-state kinetics with Mg^2+ (green) and Mn^2+ (blue). Saturation curves varying either PRPP or ATP concentration with saturating concentration of the cosubstrate for (A and B) PaHisGS and (C and D) PaATPPRT. Data points are mean ± SE, and lines are data fitting to eq 3. Kinetic and DSF data were analyzed by the nonlinear regression function of SigmaPlot 13 (SPSS Inc.). Data points and error bars in graphs are represented as mean ± standard error, and kinetic and equilibrium constants are presented as mean ± fitting error. Initial rate data with varying concentrations of PaHisZ were fitted to eq 1. The concentration of PaATPPRT at any concentration of PaHisGS and PaHisZ was calculated according to eq 2. Substrate saturation data were fitted to eq 3. Inhibition data at fixed substrate concentrations were fitted to eq 4, and competitive inhibition data were fitted to eq 5. Initial velocity patterns were fitted to eq 6, and pre-steady-state kinetics under multiple-turnover conditions was fitted to eq 7. In eqs 1–7, v is the initial rate, Vmax is the maximal velocity, G is the concentration of PaHisGS, Z is the concentration of PaHisZ, KD is the equilibrium dissociation constant, PaATPPRT is the concentration of PaHisGS-PaHisZ complex, S is the concentration of the varying substrate, kcat is the steady-state turnover number, KM is the apparent Michaelis constant, ET is total enzyme concentration, vi is the initial rate in the presence of inhibitor, IC50 is the half-maximal inhibitory concentration, Ki is the inhibitor dissociation constant, A and B are the first and second substrates to bind to the enzyme, respectively, Ka and Kb are their respective Michaelis constants, Kia is the apparent dissociation constant for the complex between enzyme and substrate A when the concentration of B approaches zero, t is time, P(t) is product concentration at time t, A0 is the amplitude of the burst phase, and kburst is the first-order rate constant of product formation in the burst phase. DSF thermal denaturation data were fitted to eq 8,[32] where FU is fraction unfolded, T is the temperature in °C, Tm is the melting temperature, c is the slope of the transition region, and LL and UL are folded and unfolded baselines, respectively. [drawing 1] 1 [drawing 2] 2 [drawing 3] 3 [drawing 4] 4 [drawing 5] 5 [drawing 6] 6 [drawing 7] 7 [drawing 8] 8

Substrate in series [8]: O=P(O)(O)OC[C@H]1O[C@H](OP(=O)(O)OP(=O)(O)O)[C@H](O)[C@@H]1O
As to the kind of experiment: purified protein, by the assay type. On the set-up: steady-state substrate saturation kinetics with Mg2+, Michaelis-Menten fit.
Excerpt: as §2

Read-outs that look alike come from different tables or passages of the source.

As to `Nc1ncnc2c1ncn2[C@@H]1O[C@H](COP(=O)(O)OP(=O)(O)OP(=O)(O)O)[C@@H](O)[C@H]1O` [ATP], in series [1], the “steady-state kinetics, initial velocity patterns, 31P NMR of turnover (no ITC or)” value is “once saturated PaHisGS turns over ATP and ADP just as effectively”.

Regarding `O=P(O)(O)OC[C@H]1O[C@H](OP(=O)(O)OP(=O)(O)O)[C@H](O)[C@@H]1O` [PRPP], the Kd in series [2] came to 12 ± 2 µM.

`Nc1ncnc2c1ncn2[C@@H]1O[C@H](COP(=O)(O)O)[C@@H](O)[C@H]1O` [AMP] registered a Ki in series [3] of 25 ± 5 µM.

In the case of `Nc1ncnc2c1ncn2[C@@H]1O[C@H](COP(=O)(O)OP(=O)(O)O)[C@@H](O)[C@H]1O` [ADP], the “31P NMR of product formation and steady-state kinetics (alternative substrate, w)” value in series [4] was “establishing that ADP can replace ATP as a substrate for PaHisGS”.

B1: PaATPPRT (Psychrobacter arcticus 273-4) (protein)
chain: MTEVTNSLPTSGLLNEANDEFLGLTLALSKGRILEETMPLLRAAGVELLEDPEASRKLIFPTSNPNVRVLILRASDVPTYVEHGAADFGVAGKDVLLEHGANHVYELLDLKIAQCKLMTAGVKDAPLPNRRLRIATKYVNVARAYFASQGQQVDVIKLYGSMELAPLVGLGDLIVDVVDTGNTLRANGLEARDHICDVSSRLIVNQVSYKRKFALLEPILDSFKNSINSTS
notes: hetero-octamer of four HisGS and four HisZ
Consider B1, for which the Km came to 190 ± 30 µM in series [5], 280 ± 60 µM in series [6], 720 ± 90 µM in series [7] and 430 ± 60 µM in series [8]. In addition, the kcat in series [5] was found to be 2.1 ± 0.1 s⁻¹; in series [6] it was 2.1 ± 0.1 s⁻¹; in series [7] it was 2.7 ± 0.1 s⁻¹; in series [8] it was 2.7 ± 0.1 s⁻¹. Further, the specificity constant (kcat/Km) in series [5] worked out at 11100 ± 2000 M⁻¹ s⁻¹; in series [6], 7500 ± 2000 M⁻¹ s⁻¹; in series [7], 3800 ± 500 M⁻¹ s⁻¹; in series [8] it was 6000 ± 900 M⁻¹ s⁻¹.

B2: PaHisGS (short-form ATP phosphoribosyltransferase catalytic subunit) (Psychrobacter arcticus 273-4) (protein)
chain: MTEVTNSLPTSGLLNEANDEFLGLTLALSKGRILEETMPLLRAAGVELLEDPEASRKLIFPTSNPNVRVLILRASDVPTYVEHGAADFGVAGKDVLLEHGANHVYELLDLKIAQCKLMTAGVKDAPLPNRRLRIATKYVNVARAYFASQGQQVDVIKLYGSMELAPLVGLGDLIVDVVDTGNTLRANGLEARDHICDVSSRLIVNQVSYKRKFALLEPILDSFKNSINSTS
For B2, in series [5], the Michaelis-Menten constant (Km) amounted to 300 ± 50 µM, the kcat came to 0.39 ± 0.05 s⁻¹ and the kcat/Km was 1300 M⁻¹ s⁻¹. Further, in series [6], the Km is 600 ± 200 µM, the turnover number (kcat) came to 0.39 ± 0.05 s⁻¹ and the kcat/Km amounted to 700 ± 200 M⁻¹ s⁻¹.

One may read the Kd as the constant that tells how readily two partners part at equilibrium. One may read the Ki as the dissociation constant of the complex between target and ligand, obtained from inhibition or displacement. Low values mean a stronger hold on the target, high ones a looser hold on the target. In general, Km refers to the concentration of substrate that gives half-maximal velocity. Broadly, the kcat is the maximal rate divided by the concentration of active sites. The kcat/Km is the turnover number divided by the Michaelis constant.
